Measurements reported in PMC9482650, “Quantitative fragmentomics allow affinity mapping of interactomes” (Nature Communications, 2022).

T1: RHPN1, Q8TCX5
T1 sequence (Q8TCX5 508-602, limits assumed, looked up): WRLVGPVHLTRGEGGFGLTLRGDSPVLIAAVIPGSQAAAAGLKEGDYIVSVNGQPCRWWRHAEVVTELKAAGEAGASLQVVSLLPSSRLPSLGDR

T2: MPDZ_5, O75970
T2 sequence (O75970 695-796, limits assumed, looked up): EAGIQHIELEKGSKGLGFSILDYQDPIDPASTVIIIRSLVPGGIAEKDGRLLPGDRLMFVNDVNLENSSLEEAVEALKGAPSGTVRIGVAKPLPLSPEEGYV

T3: PDZD2_2, O15018
T3 sequence (O15018 329-429, limits assumed, looked up): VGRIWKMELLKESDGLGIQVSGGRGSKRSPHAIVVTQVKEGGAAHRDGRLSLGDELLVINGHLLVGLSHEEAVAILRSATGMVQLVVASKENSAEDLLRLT

T4: TIAM2, Q8IVF5
T4 sequence (Q8IVF5 885-986, limits assumed, looked up): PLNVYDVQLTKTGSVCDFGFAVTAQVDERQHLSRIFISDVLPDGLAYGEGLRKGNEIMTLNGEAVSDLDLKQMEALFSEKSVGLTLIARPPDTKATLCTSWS

T5: APBA1_1, Q02410
T5 sequence (Q02410 651-752, limits assumed, looked up): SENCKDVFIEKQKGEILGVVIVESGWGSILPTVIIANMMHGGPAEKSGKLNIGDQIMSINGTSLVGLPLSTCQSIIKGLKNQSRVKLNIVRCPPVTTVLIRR

T6: RAPGEF6, Q8TEU7
T6 sequence (Q8TEU7 525-625, limits assumed, looked up): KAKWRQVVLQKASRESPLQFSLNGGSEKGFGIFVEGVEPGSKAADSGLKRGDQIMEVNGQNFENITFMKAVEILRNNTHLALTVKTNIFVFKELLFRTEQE

T7: LNX2_3, Q8N448
T7 sequence (Q8N448 463-564, limits assumed, looked up): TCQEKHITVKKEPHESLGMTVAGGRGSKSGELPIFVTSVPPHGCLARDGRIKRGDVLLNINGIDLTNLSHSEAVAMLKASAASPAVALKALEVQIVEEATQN

T8: MPDZ_12, O75970
T8 sequence (O75970 1857-1958, limits assumed, looked up): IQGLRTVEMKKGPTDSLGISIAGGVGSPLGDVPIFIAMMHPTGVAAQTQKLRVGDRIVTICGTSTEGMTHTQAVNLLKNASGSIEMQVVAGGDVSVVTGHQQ

T9: GRIP1_2, Q9Y3R0
T9 sequence (Q9Y3R0 145-248, limits assumed, looked up): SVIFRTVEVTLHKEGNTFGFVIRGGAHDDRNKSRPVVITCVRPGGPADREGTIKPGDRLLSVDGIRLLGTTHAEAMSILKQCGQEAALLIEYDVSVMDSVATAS

T10: PTPN13_1, Q12923
T10 sequence (Q12923 1088-1188, limits assumed, looked up): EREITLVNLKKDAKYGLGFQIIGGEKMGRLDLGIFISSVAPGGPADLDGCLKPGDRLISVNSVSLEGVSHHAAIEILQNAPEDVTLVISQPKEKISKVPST


Molecular target: MAST2, Q6P0Q8
Sequence (Q6P0Q8 1099-1202): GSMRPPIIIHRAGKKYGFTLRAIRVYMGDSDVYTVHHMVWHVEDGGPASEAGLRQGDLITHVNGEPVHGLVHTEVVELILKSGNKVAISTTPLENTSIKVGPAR
Assay: holdup assay
Parameters: key: below the threshold = too weak to quantify, mostly under pKd 3.1 to 4
Details: plain residues with an end cap or a label only (N-terminal biotin on a linker: ado-ado)

pKd	Binder
4.07	PALKNGQYWV [CSPG4, Q6UVK1]

Molecular target: T1, RHPN1, Q8TCX5
Assay: holdup assay
Parameters: key: below the threshold = too weak to quantify, mostly under pKd 3.1 to 4
Details: plain residues with an end cap or a label only (N-terminal biotin on a linker: ado-ado)

pKd	Binder
below the threshold	PALKNGQYWV [CSPG4, Q6UVK1]

Molecular target: HTRA2, O43464
Sequence (O43464 355-458): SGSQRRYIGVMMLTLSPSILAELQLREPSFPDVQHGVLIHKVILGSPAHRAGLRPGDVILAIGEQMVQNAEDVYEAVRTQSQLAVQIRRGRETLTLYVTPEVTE
Assay: holdup assay
Parameters: key: below the threshold = too weak to quantify, mostly under pKd 3.1 to 4
Details: plain residues with an end cap or a label only (N-terminal biotin on a linker: ado-ado)

pKd	Binder
4.72	PALKNGQYWV [CSPG4, Q6UVK1]

Molecular target: Inadl_1, Q8NI35
Sequence (Q8NI35 113-229): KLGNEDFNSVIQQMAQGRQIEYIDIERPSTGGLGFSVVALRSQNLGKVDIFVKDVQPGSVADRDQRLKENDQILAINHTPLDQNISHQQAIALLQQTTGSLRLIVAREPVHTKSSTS
Assay: holdup assay
Parameters: key: below the threshold = too weak to quantify, mostly under pKd 3.1 to 4
Details: plain residues with an end cap or a label only (N-terminal biotin on a linker: ado-ado)

pKd	Binder
4.09	PALKNGQYWV [CSPG4, Q6UVK1]

Molecular target: DLG4_1, P78352
Sequence (P78352 62-152): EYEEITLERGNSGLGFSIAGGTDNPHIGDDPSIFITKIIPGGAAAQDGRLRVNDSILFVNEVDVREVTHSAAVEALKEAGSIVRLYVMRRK
Assay: holdup assay
Parameters: key: below the threshold = too weak to quantify, mostly under pKd 3.1 to 4
Details: plain residues with an end cap or a label only (N-terminal biotin on a linker: ado-ado)

pKd	Binder
below the threshold	PALKNGQYWV [CSPG4, Q6UVK1]

Molecular target: T2, MPDZ_5, O75970
Assay: holdup assay
Parameters: key: below the threshold = too weak to quantify, mostly under pKd 3.1 to 4
Details: plain residues with an end cap or a label only (N-terminal biotin on a linker: ado-ado)

pKd	Binder
4.2	PALKNGQYWV [CSPG4, Q6UVK1]

Molecular target: MAGI2_2, Q86UL8
Sequence (Q86UL8 410-522): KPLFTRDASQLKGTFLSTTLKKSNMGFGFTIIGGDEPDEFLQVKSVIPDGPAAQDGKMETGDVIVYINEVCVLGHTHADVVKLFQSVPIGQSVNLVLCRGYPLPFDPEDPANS
Assay: holdup assay
Parameters: key: below the threshold = too weak to quantify, mostly under pKd 3.1 to 4
Details: plain residues with an end cap or a label only (N-terminal biotin on a linker: ado-ado)

pKd	Binder
below the threshold	PALKNGQYWV [CSPG4, Q6UVK1]

Molecular target: LNX1_2, Q8TBB1
Sequence (Q8TBB1 371-470): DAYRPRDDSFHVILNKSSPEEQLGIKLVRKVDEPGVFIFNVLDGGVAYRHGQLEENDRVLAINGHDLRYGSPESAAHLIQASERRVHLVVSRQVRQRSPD
Assay: holdup assay
Parameters: key: below the threshold = too weak to quantify, mostly under pKd 3.1 to 4
Details: plain residues with an end cap or a label only (N-terminal biotin on a linker: ado-ado)

pKd	Binder
4.27	PALKNGQYWV [CSPG4, Q6UVK1]

Molecular target: PARD3_3, Q8TEW0
Sequence (Q8TEW0 582-685): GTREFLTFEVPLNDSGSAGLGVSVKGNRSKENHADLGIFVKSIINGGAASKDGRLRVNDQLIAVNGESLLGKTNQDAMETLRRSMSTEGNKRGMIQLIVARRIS
Assay: holdup assay
Parameters: key: below the threshold = too weak to quantify, mostly under pKd 3.1 to 4
Details: plain residues with an end cap or a label only (N-terminal biotin on a linker: ado-ado)

pKd	Binder
3.96	PALKNGQYWV [CSPG4, Q6UVK1]

Molecular target: NHERF4_1, Q86UT5-2
Sequence (Q86UT5 other isoform, or with tags, fused parts or gaps): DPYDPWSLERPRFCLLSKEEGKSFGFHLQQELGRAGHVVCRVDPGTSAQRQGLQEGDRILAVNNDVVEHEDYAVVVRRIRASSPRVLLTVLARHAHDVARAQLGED
Assay: holdup assay
Parameters: key: below the threshold = too weak to quantify, mostly under pKd 3.1 to 4
Details: plain residues with an end cap or a label only (N-terminal biotin on a linker: ado-ado)

pKd	Binder
3.5	PALKNGQYWV [CSPG4, Q6UVK1]

Molecular target: LAP2, Q96RT1
Sequence (Q96RT1 other isoform, or with tags, fused parts or gaps): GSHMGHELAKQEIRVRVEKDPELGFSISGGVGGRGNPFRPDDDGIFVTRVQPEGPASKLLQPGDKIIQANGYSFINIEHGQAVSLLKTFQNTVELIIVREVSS
Assay: holdup assay
Parameters: key: below the threshold = too weak to quantify, mostly under pKd 3.1 to 4
Details: plain residues with an end cap or a label only (N-terminal biotin on a linker: ado-ado)

pKd	Binder
3.75	PALKNGQYWV [CSPG4, Q6UVK1]

Molecular target: GRIP2_7, Q9C0E4
Sequence (Q9C0E4 934-1023): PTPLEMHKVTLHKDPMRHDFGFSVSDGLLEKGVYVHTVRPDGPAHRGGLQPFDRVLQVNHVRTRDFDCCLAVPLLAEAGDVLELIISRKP
Assay: holdup assay
Parameters: key: below the threshold = too weak to quantify, mostly under pKd 3.1 to 4
Details: plain residues with an end cap or a label only (N-terminal biotin on a linker: ado-ado)

pKd	Binder
5.83	PALKNGQYWV [CSPG4, Q6UVK1]

Molecular target: T3, PDZD2_2, O15018
Assay: holdup assay
Parameters: key: below the threshold = too weak to quantify, mostly under pKd 3.1 to 4
Details: plain residues with an end cap or a label only (N-terminal biotin on a linker: ado-ado)

pKd	Binder
5.45	PALKNGQYWV [CSPG4, Q6UVK1]

Molecular target: T4, TIAM2, Q8IVF5
Assay: holdup assay
Parameters: key: below the threshold = too weak to quantify, mostly under pKd 3.1 to 4
Details: plain residues with an end cap or a label only (N-terminal biotin on a linker: ado-ado)

pKd	Binder
4.83	PALKNGQYWV [CSPG4, Q6UVK1]

Molecular target: SNX27, Q96L92
Assay: holdup assay
Parameters: key: below the threshold = too weak to quantify, mostly under pKd 3.1 to 4
Details: plain residues with an end cap or a label only (N-terminal biotin on a linker: ado-ado)

pKd	Binder
3.77	PALKNGQYWV [CSPG4, Q6UVK1]

Molecular target: DLG2_3, Q15700
Assay: holdup assay
Parameters: key: below the threshold = too weak to quantify, mostly under pKd 3.1 to 4
Details: plain residues with an end cap or a label only (N-terminal biotin on a linker: ado-ado)

pKd	Binder
below the threshold	PALKNGQYWV [CSPG4, Q6UVK1]

Molecular target: FRMPD2_1, Q68DX3
Sequence (Q68DX3 770-861): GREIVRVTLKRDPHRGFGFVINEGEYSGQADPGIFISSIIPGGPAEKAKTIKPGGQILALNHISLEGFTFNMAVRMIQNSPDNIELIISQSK
Assay: holdup assay
Parameters: key: below the threshold = too weak to quantify, mostly under pKd 3.1 to 4
Details: plain residues with an end cap or a label only (N-terminal biotin on a linker: ado-ado)

pKd	Binder
3.82	PALKNGQYWV [CSPG4, Q6UVK1]

Molecular target: T5, APBA1_1, Q02410
Assay: holdup assay
Parameters: key: below the threshold = too weak to quantify, mostly under pKd 3.1 to 4
Details: plain residues with an end cap or a label only (N-terminal biotin on a linker: ado-ado)

pKd	Binder
below the threshold	PALKNGQYWV [CSPG4, Q6UVK1]

Molecular target: T6, RAPGEF6, Q8TEU7
Assay: holdup assay
Parameters: key: below the threshold = too weak to quantify, mostly under pKd 3.1 to 4
Details: plain residues with an end cap or a label only (N-terminal biotin on a linker: ado-ado)

pKd	Binder
below the threshold	PALKNGQYWV [CSPG4, Q6UVK1]

Molecular target: NOS1, P29475
Sequence (P29475 9-101): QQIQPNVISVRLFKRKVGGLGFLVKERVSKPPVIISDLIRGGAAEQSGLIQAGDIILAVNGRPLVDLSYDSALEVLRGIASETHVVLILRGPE
Assay: holdup assay
Parameters: key: below the threshold = too weak to quantify, mostly under pKd 3.1 to 4
Details: plain residues with an end cap or a label only (N-terminal biotin on a linker: ado-ado)

pKd	Binder
4.09	PALKNGQYWV [CSPG4, Q6UVK1]

Molecular target: T7, LNX2_3, Q8N448
Assay: holdup assay
Parameters: key: below the threshold = too weak to quantify, mostly under pKd 3.1 to 4
Details: plain residues with an end cap or a label only (N-terminal biotin on a linker: ado-ado)

pKd	Binder
below the threshold	PALKNGQYWV [CSPG4, Q6UVK1]

Molecular target: DLG4_3, P78352
Sequence (P78352 306-403): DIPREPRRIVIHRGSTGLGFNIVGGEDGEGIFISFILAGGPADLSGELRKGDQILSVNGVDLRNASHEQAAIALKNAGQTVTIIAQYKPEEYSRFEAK
Assay: holdup assay
Parameters: key: below the threshold = too weak to quantify, mostly under pKd 3.1 to 4
Details: plain residues with an end cap or a label only (N-terminal biotin on a linker: ado-ado)

pKd	Binder
below the threshold	PALKNGQYWV [CSPG4, Q6UVK1]

Molecular target: T8, MPDZ_12, O75970
Assay: holdup assay
Parameters: key: below the threshold = too weak to quantify, mostly under pKd 3.1 to 4
Details: plain residues with an end cap or a label only (N-terminal biotin on a linker: ado-ado)

pKd	Binder
3.61	PALKNGQYWV [CSPG4, Q6UVK1]

Molecular target: T9, GRIP1_2, Q9Y3R0
Assay: holdup assay
Parameters: key: below the threshold = too weak to quantify, mostly under pKd 3.1 to 4
Details: plain residues with an end cap or a label only (N-terminal biotin on a linker: ado-ado)

pKd	Binder
below the threshold	PALKNGQYWV [CSPG4, Q6UVK1]

Molecular target: GRIP2_3, Q9C0E4
Sequence (Q9C0E4 238-339): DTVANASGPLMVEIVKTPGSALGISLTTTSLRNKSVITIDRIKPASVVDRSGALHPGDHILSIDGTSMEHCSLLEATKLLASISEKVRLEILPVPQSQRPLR
Assay: holdup assay
Parameters: key: below the threshold = too weak to quantify, mostly under pKd 3.1 to 4
Details: plain residues with an end cap or a label only (N-terminal biotin on a linker: ado-ado)

pKd	Binder
below the threshold	PALKNGQYWV [CSPG4, Q6UVK1]

Molecular target: FRMPD3, Q5JV73
Sequence (Q5JV73 12-100): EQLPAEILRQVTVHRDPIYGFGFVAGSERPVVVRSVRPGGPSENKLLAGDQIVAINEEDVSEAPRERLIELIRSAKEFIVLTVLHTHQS
Assay: holdup assay
Parameters: key: below the threshold = too weak to quantify, mostly under pKd 3.1 to 4
Details: plain residues with an end cap or a label only (N-terminal biotin on a linker: ado-ado)

pKd	Binder
below the threshold	PALKNGQYWV [CSPG4, Q6UVK1]

Molecular target: T10, PTPN13_1, Q12923
Assay: holdup assay
Parameters: key: below the threshold = too weak to quantify, mostly under pKd 3.1 to 4
Details: plain residues with an end cap or a label only (N-terminal biotin on a linker: ado-ado)

pKd	Binder
below the threshold	PALKNGQYWV [CSPG4, Q6UVK1]

Molecular target: DLG1_1, Q12959
Assay: holdup assay
Parameters: key: below the threshold = too weak to quantify, mostly under pKd 3.1 to 4
Details: plain residues with an end cap or a label only (N-terminal biotin on a linker: ado-ado)

pKd	Binder
below the threshold	PALKNGQYWV [CSPG4, Q6UVK1]
